Tests used:
[1] = biological target: CelTOS N-terminal truncation mutant (Gly51-Asp196) (Plasmodium vivax); experiment: SEC
[2] = biological target: Disulfide-locked CelTOS dimer (Ser55Cys, Ala123Cys) (Plasmodium vivax); experiment: cross-linking
[3] = biological target: CelTOS double mutant Lys122Asp, Leu164Asp (Plasmodium vivax); experiment: SEC

In the case of “CelTOS N-terminal truncation mutant (Gly51-Asp196) (domain or fragment)”, the stoichiometry N [1] was 2.
“Disulfide-locked CelTOS dimer (Ser55Cys, Ala123Cys) (natural protein)” showed a precursor abundance of cross-linked species [2] of 70% and a stoichiometry N [2] of 2.
In the case of “CelTOS double mutant Lys122Asp, Leu164Asp (natural protein)”, the stoichiometry N [3] was 2.

Reference: publication doi:10.1101/2022.03.31.486524
